Patent US9266930
Where two headings read alike, the source gives them in different places.

Key:
[1] = molecular target: T1, HLA-DR8w2 (DRB1*0802) (human)
T1 chain 1: not shown
T1 chain 2: not shown

[2] = molecular target: T2, HLA-DR9 (DRB1*0901) (human)
T2 chain 1: not shown
T2 chain 2: not shown

[3] = molecular target: T3, HLA-DR7 (DRB1*0701) (human)
T3 chain 1: not shown
T3 chain 2: not shown

[4] = molecular target: T4, HLA-DR5w12 (DRB1*1201) (human)
T4 chain 1: not shown
T4 chain 2: not shown

[5] = molecular target: T5, HLA-DR6w19 (DRB1*1302) (human)
T5 chain 1: not shown
T5 chain 2: not shown

[6] = molecular target: HLA-DR1 (DRB1*0101) (human)
[7] = molecular target: HLA-DR5w11 (DRB1*1101) (human)
[8] = molecular target: HLA-DR2w2β2 (DRB5*0101) (human)
[9] = molecular target: HLA-DR4w4 (DRB1*0401) (human)
[10] = molecular target: HLA-DR4w15 (DRB1*0405) (human)
[11] = molecular target: T6, HLA-DRw53 (DRB4*0101) (human)
T6 chain 1: not shown
T6 chain 2: not shown

HLA-A*1101 (Human) [12] = molecular target: HLA-A*1101 (Human)
HLA-A*1101 (Human) [13] = molecular target: HLA-A*1101 (Human); remark: listed apart in the source
HLA-A*1101 (human) [14] = test: competition with 125I-labelled standard peptide for purified HLA, gel filtration
[15] = molecular target: HLA-DR3 (DRB1*0301) (human)

B1: … (Pf EXP 107) (peptide)
peptide: RHPFKIGSSDPADNA
modifications: not checked
[1]
  binding affinity ratio (IC50 of standard peptide / IC50 of test peptide): 0.038
[2]
  binding affinity ratio (IC50 of standard peptide / IC50 of test peptide): 0.095
[3]
  binding affinity ratio (IC50 of standard peptide / IC50 of test peptide): -0.0003
[4]
  binding affinity ratio (IC50 of standard peptide / IC50 of test peptide): 0.0001
[5]
  binding affinity ratio (IC50 of standard peptide / IC50 of test peptide): 0.0003

B2: … (P. falciparum EXP, position 27) (peptide)
peptide: KGTGSGVSSK
modifications: not checked
HLA-A*0301 (human)
  binding affinity ratio (IC50 of standard peptide / IC50 of test peptide): 0.0005

B3: … (peptide)
peptide: CVEVEKTASCGVWDE
modifications: not checked
[6]
  binding affinity ratio (IC50 of standard peptide / IC50 of test peptide): 0.0004
[7]
  binding affinity ratio (IC50 of standard peptide / IC50 of test peptide): -0.0002
[8]
  binding affinity ratio (IC50 of standard peptide / IC50 of test peptide): -0.0005
[9]
  binding affinity ratio (IC50 of standard peptide / IC50 of test peptide): 0.0021
[10]
  binding affinity ratio (IC50 of standard peptide / IC50 of test peptide): -0.0009

B4: … (Pf EXP 47) (peptide)
peptide: LIDVHDLISDMIKKE
modifications: not checked
[1]
  binding affinity ratio (IC50 of standard peptide / IC50 of test peptide): 0.0096
[2]
  binding affinity ratio (IC50 of standard peptide / IC50 of test peptide): 0.043
[11]
  binding affinity ratio (IC50 of standard peptide / IC50 of test peptide): 0.094
[3]
  binding affinity ratio (IC50 of standard peptide / IC50 of test peptide): 0.01
[4]
  binding affinity ratio (IC50 of standard peptide / IC50 of test peptide): 0.0001
[5]
  binding affinity ratio (IC50 of standard peptide / IC50 of test peptide): 0.0004

B5: … (P. falciparum EXP, position 15) (peptide)
peptide: IFNKESLAEK
modifications: not checked
HLA-A*0301 (human)
  binding affinity ratio (IC50 of standard peptide / IC50 of test peptide): 0.0005

B6: … (CSP 82) (peptide)
peptide: NGDNGREGK
modifications: not checked
HLA-A*1101 (Human) [12]
  binding affinity ratio (IC50 of standard peptide / IC50 of test peptide): 0.0002

B7: NDIEKKIK (CSP 401) (peptide)
peptide: NDIEKKICK
modifications: not checked
HLA-A*1101 (Human) [13]
  binding affinity ratio (IC50 of standard peptide / IC50 of test peptide): 0.0002

B8: … (Pf SSP2 157) (peptide)
peptide: VVILTDGIPDSIQDS
modifications: not checked
[1]
  binding affinity ratio (IC50 of standard peptide / IC50 of test peptide): -0.0003
[11]
  binding affinity ratio (IC50 of standard peptide / IC50 of test peptide): 0.0114
[3]
  binding affinity ratio (IC50 of standard peptide / IC50 of test peptide): -0.0003
[4]
  binding affinity ratio (IC50 of standard peptide / IC50 of test peptide): 0.0001

B9: … (Pf SSP2 227) (peptide)
peptide: IGPFMKAVCVEVEKT
modifications: not checked
[1]
  binding affinity ratio (IC50 of standard peptide / IC50 of test peptide): -0.0003
[2]
  binding affinity ratio (IC50 of standard peptide / IC50 of test peptide): 0.082
[11]
  binding affinity ratio (IC50 of standard peptide / IC50 of test peptide): 0.07
[3]
  binding affinity ratio (IC50 of standard peptide / IC50 of test peptide): 0.0019
[4]
  binding affinity ratio (IC50 of standard peptide / IC50 of test peptide): 0.0038
[5]
  binding affinity ratio (IC50 of standard peptide / IC50 of test peptide): 0.0003

B10: … (peptide)
peptide: CGVWDEWSPCSVTCG
modifications: not checked
[6]
  binding affinity ratio (IC50 of standard peptide / IC50 of test peptide): 0.0001
[7]
  binding affinity ratio (IC50 of standard peptide / IC50 of test peptide): -0.0002
[8]
  binding affinity ratio (IC50 of standard peptide / IC50 of test peptide): -0.0006
[9]
  binding affinity ratio (IC50 of standard peptide / IC50 of test peptide): -0.0007

B11: … (CSP 397) (peptide)
peptide: LDYENDIEK
modifications: not checked
HLA-A*1101 (Human) [12]
  binding affinity ratio (IC50 of standard peptide / IC50 of test peptide): 0.0002

B12: … (peptide)
peptide: SVTCGKGTR
modifications: not checked
HLA-A*1101 (human) [14]
  binding affinity ratio (IC50 of standard peptide / IC50 of test peptide): 0.0009

B13: … (P. falciparum EXP, position 66) (peptide)
peptide: EVNKRKSKY
modifications: not checked
HLA-A*1101 (Human) [13]
  binding affinity ratio (IC50 of standard peptide / IC50 of test peptide): 0.0002

B14: … (P. falciparum EXP, position 32) (peptide)
peptide: GVSSKKKNK
modifications: not checked
HLA-A*0301 (human)
  binding affinity ratio (IC50 of standard peptide / IC50 of test peptide): 0.0001

B15: … (peptide)
peptide: LIDVHDLISDMIKKE
modifications: not checked
[15]
  binding affinity ratio (IC50 of standard peptide / IC50 of test peptide): 0.01
[10]
  binding affinity ratio (IC50 of standard peptide / IC50 of test peptide): 0.0076

B16: … (CSP 31) (peptide)
peptide: NTRVLNELNY
modifications: not checked
HLA-A*1101 (Human) [13]
  binding affinity ratio (IC50 of standard peptide / IC50 of test peptide): 0.0002

B17: … (peptide)
peptide: TVLLGGVGLVLYNTE
modifications: not checked
[6]
  binding affinity ratio (IC50 of standard peptide / IC50 of test peptide): 0.49
[7]
  binding affinity ratio (IC50 of standard peptide / IC50 of test peptide): -0.0002
[8]
  binding affinity ratio (IC50 of standard peptide / IC50 of test peptide): -0.0005
[10]
  binding affinity ratio (IC50 of standard peptide / IC50 of test peptide): -0.0009

B18: … (P. falciparum CSP, position 95) (peptide)
peptide: RDGNNEDNEK
modifications: not checked
HLA-A*1101 (Human) [13]
  binding affinity ratio (IC50 of standard peptide / IC50 of test peptide): 0.0002

B19: … (Pf SSP2 153) (peptide)
peptide: ANQLVVILTDGIPDS
modifications: not checked
[1]
  binding affinity ratio (IC50 of standard peptide / IC50 of test peptide): -0.0002
[2]
  binding affinity ratio (IC50 of standard peptide / IC50 of test peptide): 0.042
[3]
  binding affinity ratio (IC50 of standard peptide / IC50 of test peptide): 0.0054
[4]
  binding affinity ratio (IC50 of standard peptide / IC50 of test peptide): 0.0003
[5]
  binding affinity ratio (IC50 of standard peptide / IC50 of test peptide): 0.007

B20: … (Pf SSP2 68) (peptide)
peptide: AVPLAMKLIQQLNLN
modifications: not checked
[1]
  binding affinity ratio (IC50 of standard peptide / IC50 of test peptide): 0.04
[11]
  binding affinity ratio (IC50 of standard peptide / IC50 of test peptide): 0.035
[3]
  binding affinity ratio (IC50 of standard peptide / IC50 of test peptide): 0.077
[4]
  binding affinity ratio (IC50 of standard peptide / IC50 of test peptide): 0.13

B21: … (P. falciparum EXP, position 32) (peptide)
peptide: GVSSKKKNKK
modifications: not checked
HLA-A*0301 (human)
  binding affinity ratio (IC50 of standard peptide / IC50 of test peptide): 0.0011

B22: … (Pf EXP 1) (peptide)
peptide: MKILSVFFLALFFII
modifications: not checked
[1]
  binding affinity ratio (IC50 of standard peptide / IC50 of test peptide): 0.0023
[2]
  binding affinity ratio (IC50 of standard peptide / IC50 of test peptide): 0.006
[3]
  binding affinity ratio (IC50 of standard peptide / IC50 of test peptide): 0.036
[4]
  binding affinity ratio (IC50 of standard peptide / IC50 of test peptide): 0.0023
[5]
  binding affinity ratio (IC50 of standard peptide / IC50 of test peptide): 0.0019

B23: … (peptide)
peptide: SIQDSLKESR
modifications: not checked
HLA-A*1101 (human) [14]
  binding affinity ratio (IC50 of standard peptide / IC50 of test peptide): 0.0009

B24: … (peptide)
peptide: ILSVFFLALFFIIFN
modifications: not checked
[15]
  binding affinity ratio (IC50 of standard peptide / IC50 of test peptide): -0.0008
[8]
  binding affinity ratio (IC50 of standard peptide / IC50 of test peptide): 0.0091
[10]
  binding affinity ratio (IC50 of standard peptide / IC50 of test peptide): -0.0009

B25: … (Pf SSP2 517) (peptide)
peptide: AGGLALLACAGLAYK
modifications: not checked
[1]
  binding affinity ratio (IC50 of standard peptide / IC50 of test peptide): 0.0003
[11]
  binding affinity ratio (IC50 of standard peptide / IC50 of test peptide): -0.0005
[3]
  binding affinity ratio (IC50 of standard peptide / IC50 of test peptide): 0.0009
[4]
  binding affinity ratio (IC50 of standard peptide / IC50 of test peptide): 0.0051

B26: … (Pf CSP 96, A11 motif peptide) (peptide)
peptide: DGNNEDNEK
modifications: not checked
HLA-A*1101 (Human) [13]
  binding affinity ratio (IC50 of standard peptide / IC50 of test peptide): 0.0002

B27: … (CSP 397) (peptide)
peptide: LDYENDIEKK
modifications: not checked
HLA-A*1101 (Human) [12]
  binding affinity ratio (IC50 of standard peptide / IC50 of test peptide): 0.0002

B28: … (peptide)
peptide: WSPCSVTCGK
modifications: not checked
HLA-A*1101 (human) [14]
  binding affinity ratio (IC50 of standard peptide / IC50 of test peptide): 0.0002

B29: … (peptide)
peptide: AGGLALLACAGLAYK
modifications: not checked
[7]
  binding affinity ratio (IC50 of standard peptide / IC50 of test peptide): -0.0002
[9]
  binding affinity ratio (IC50 of standard peptide / IC50 of test peptide): -0.0007

B30: … (peptide)
peptide: VKYLVIVFLIFFDLF
modifications: not checked
[6]
  binding affinity ratio (IC50 of standard peptide / IC50 of test peptide): 0.0001
[9]
  binding affinity ratio (IC50 of standard peptide / IC50 of test peptide): 0.003

B31: … (CSP 85) (peptide)
peptide: NGREGKDEDK
modifications: not checked
HLA-A*1101 (Human) [12]
  binding affinity ratio (IC50 of standard peptide / IC50 of test peptide): 0.0002

B32: … (P. falciparum EXP, position 51) (peptide)
peptide: HDLISDMIKK
modifications: not checked
HLA-A*0301 (human)
  binding affinity ratio (IC50 of standard peptide / IC50 of test peptide): 0.0009

B33: … (CSP 46) (peptide)
peptide: NLYNELEMNY
modifications: not checked
HLA-A*1101 (Human) [12]
  binding affinity ratio (IC50 of standard peptide / IC50 of test peptide): 0.0002

B34: … (Pf CSP 377, A11 motif peptide) (peptide)
peptide: CGNGIQVRIK
modifications: not checked
HLA-A*1101 (Human) [13]
  binding affinity ratio (IC50 of standard peptide / IC50 of test peptide): 0.0002

B35: … (peptide)
peptide: LGNVKYLVIVFLIFF
modifications: not checked
[6]
  binding affinity ratio (IC50 of standard peptide / IC50 of test peptide): 0.0006
[15]
  binding affinity ratio (IC50 of standard peptide / IC50 of test peptide): -0.0008

B36: … (P. falciparum EXP, position 51) (peptide)
peptide: HDLISDMIK
modifications: not checked
HLA-A*0301 (human)
  binding affinity ratio (IC50 of standard peptide / IC50 of test peptide): 0.0001

B37: … (Pf SSP2 513) (peptide)
peptide: AGGIAGGLALLACAG
modifications: not checked
[1]
  binding affinity ratio (IC50 of standard peptide / IC50 of test peptide): 0.0004
[11]
  binding affinity ratio (IC50 of standard peptide / IC50 of test peptide): -0.0005
[3]
  binding affinity ratio (IC50 of standard peptide / IC50 of test peptide): -0.0003
[4]
  binding affinity ratio (IC50 of standard peptide / IC50 of test peptide): 0.0007
